In general, stoichiometry N refers to a count of units in the complex or per binding partner.

Read-outs that look alike come from different tables or passages of the source.

Data on two molecules can be found in PMC9381132 (Molecular Cancer Therapeutics, 2022).

The target of assay [1] is T1, untagged human LY6G6D extracellular domain (construct used for structural studies) (human).
T1 chain: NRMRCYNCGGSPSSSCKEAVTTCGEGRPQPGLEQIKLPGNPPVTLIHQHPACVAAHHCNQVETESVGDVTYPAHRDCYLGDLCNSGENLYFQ
Put plainly: SEC-MALS. Background: Size exclusion chromatography separates by hydrodynamic size, large species first.

Assay [2] has as its target T2, human LY6G6D (recombinant protein of the BIAcore kinetics and of the epitope binning) (Homo sapiens, UniProt O95868). Put plainly: SPR.
The target of assay [3] is T2, human LY6G6D (recombinant protein of …). The assay can be described thus: SPR. The source holds these as a separate data set. A general note: In SPR one partner is held on a chip, and binding of the other changes the refractive index at the surface.

B1: 1G4 Fab (Fab, V domains shown)
VH: EVQLQQSGPELVKPGASVKMSCKASGYTFTTYVMHWVQQKPGQGLEWIGYINPYNDGTKYNEKFKGKATLTSDTSSSTAYMELSSLTSDDSAVYYCGRRNFDYWGQGTLVTVSS
VL: DILMTQSPSSLTVSAGEKVTMSCKSSQSLLLSGNQENYLAWHQQKPGRSPKTLITWASTRISGVSDRFIGSGSGTDFTLTINSVQAEDLAVYYCQQSYSAPYTFGQGTKVEIK
In the case of B1, the “stoichiometry N” value in assay [1] is 1. The binding result in assay [2] is given as “binds”.

B2: anti-LY6G6D murine mAb clone 1G4 (antibody, V domains shown)
VH: EVQLQQSGPELVKPGASVKMSCKASGYTFTTYVMHWVQQKPGQGLEWIGYINPYNDGTKYNEKFKGKATLTSDTSSSTAYMELSSLTSDDSAVYYCGRRNFDYWGQGTLVTVSS
VL: DILMTQSPSSLTVSAGEKVTMSCKSSQSLLLSGNQENYLAWHQQKPGRSPKTLITWASTRISGVSDRFIGSGSGTDFTLTINSVQAEDLAVYYCQQSYSAPYTFGQGTKVEIK
For the molecule B2, the binding result in assay [3] is recorded as “binds”.
